Each substance was assayed against 2C7 antibody (assay: VLP library affinity selection on 2C7, clones sequenced).

For ELWRGT (peptide), which copies among sequenced affinity-selected clones is on record?
Its copies among sequenced affinity-selected clones is 2 copies.

LDYEGN (peptide) was tested. Which copies among sequenced affinity-selected clones did it give?
The copies among sequenced affinity-selected clones was 1 copy.

With LDYERI (peptide) as the substance, how does the copies among sequenced affinity-selected clones read?
Its copies among sequenced affinity-selected clones is 3 copies.

Which copies among sequenced affinity-selected clones does the source give for LDYMRT (peptide) here?
The copies among sequenced affinity-selected clones was 4 copies.

LDYQRV (peptide) was tested. Which copies among sequenced affinity-selected clones did it give?
The copies among sequenced affinity-selected clones was 7 copies.

Which copies among sequenced affinity-selected clones does the source give for PLWKGN (peptide) here?
Its copies among sequenced affinity-selected clones is 1 copy.

Which copies among sequenced affinity-selected clones does the source give for PLWRGT (peptide) here?
The copies among sequenced affinity-selected clones was 1 copy.

With VDYERI (peptide) as the substance, how does the copies among sequenced affinity-selected clones read?
Its copies among sequenced affinity-selected clones is 2 copies.

What follows are substances tested against mAb 2H1 (assay: VLP library affinity selection on 2H1, clones sequenced).

DTQCQF (peptide) was tested. Which copies among sequenced affinity-selected clones did it give?
Its copies among sequenced affinity-selected clones is 17 copies.

How did the copies among sequenced affinity-selected clones turn out when WDATLQPA (peptide) was run?
The copies among sequenced affinity-selected clones was 2 copies.

How did the copies among sequenced affinity-selected clones turn out when WTADLQPE (peptide) was run?
Its copies among sequenced affinity-selected clones is 1 copy.

— patent US20140106982A1
